Measurements from the supplement of paper PMC9112550, “Optimization of the antimicrobial peptide Bac7 by deep mutational scanning” (BMC Biology, 2022).

The sequences below were run on Escherichia coli TOP10 (assay: shrunken log2 fold change of peptide-encoding DNA abundance (4.5 h post-induction vs induction); higher = less antimicrobial activity (less host growth inhibition)). Conditions: time post-induction: 4.5 h; library: site-saturation at positions 5, 18, 19, 20.
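Further: peptides expressed intracellularly from a pBAD plasmid library in pooled LB shake-flask culture, induced with 0.3% L-arabinose, DNA abundance read by NGS, three biological replicates, DESeq2 with apeglm shrinkage.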

Row | Sequence | shrunken log2 fold change
1 | RRIRTRPPRLPRPRPRPVLLPRP | -0.127
2 | RRIRLRPPRLPRPRPRPSMWPRP | 0.0718
3 | RRIRQRPPRLPRPRPRPFFIPRP | -0.365
4 | RRIRGRPPRLPRPRPRPMRFPRP | 0.112
5 | RRIRSRPPRLPRPRPRPKQDPRP | 0.0172
6 | RRIRYRPPRLPRPRPRPHQQPRP | -0.0439
7 | RRIRHRPPRLPRPRPRPFLIPRP | -0.687
8 | RRIRFRPPRLPRPRPRPYHPPRP | -0.58
9 | RRIRRRPPRLPRPRPRPCKNPRP | 0.0778
10 | RRIRKRPPRLPRPRPRPMRTPRP | 3.66
11 | RRIRFRPPRLPRPRPRPCHAPRP | -0.193
12 | RRIRKRPPRLPRPRPRPYDNPRP | 0.0185
13 | RRIRKRPPRLPRPRPRPTHEPRP | 0.267
14 | RRIRNRPPRLPRPRPRPRDEPRP | -0.0923
15 | RRIRYRPPRLPRPRPRPDILPRP | 0.0101
16 | RRIRVRPPRLPRPRPRPFMWPRP | -0.327
17 | RRIRSRPPRLPRPRPRPEFVPRP | 0.00503
18 | RRIRIRPPRLPRPRPRPETGPRP | -0.322
19 | RRIRQRPPRLPRPRPRPTFVPRP | -0.692
20 | RRIRMRPPRLPRPRPRPSQPPRP | 0.22
21 | RRIRVRPPRLPRPRPRPELDPRP | 0.183
22 | RRIRLRPPRLPRPRPRPFQYPRP | -0.182
23 | RRIRHRPPRLPRPRPRPCCWPRP | 0.015
24 | RRIRDRPPRLPRPRPRPHDHPRP | 0.00042
25 | RRIRERPPRLPRPRPRPYIDPRP | -1.51

Row | Sequence | shrunken log2 fold change
26 | RRIRIRPPRLPRPRPRPGHAPRP | -0.0343
27 | RRIRQRPPRLPRPRPRPPTLPRP | -4.2e-05
28 | RRIRQRPPRLPRPRPRPLGHPRP | 0.0124
29 | RRIRHRPPRLPRPRPRPVCAPRP | 0.208
30 | RRIRGRPPRLPRPRPRPVVFPRP | 0.56
31 | RRIRQRPPRLPRPRPRPDLVPRP | -0.0031
32 | RRIRLRPPRLPRPRPRPKDIPRP | -0.23
33 | RRIRFRPPRLPRPRPRPQWFPRP | -0.344
34 | RRIRSRPPRLPRPRPRPPSRPRP | 0.263
35 | RRIRYRPPRLPRPRPRPAQDPRP | 0.188
36 | RRIRTRPPRLPRPRPRPNQGPRP | -0.493
37 | RRIRYRPPRLPRPRPRPFWMPRP | -0.297
38 | RRIRFRPPRLPRPRPRPFIDPRP | -0.389
39 | RRIRLRPPRLPRPRPRPGRAPRP | 0.469
40 | RRIRKRPPRLPRPRPRPPMCPRP | 0.389
41 | RRIRKRPPRLPRPRPRPTARPRP | 0.508
42 | RRIRIRPPRLPRPRPRPMCWPRP | -0.00326
43 | RRIRTRPPRLPRPRPRPHGWPRP | -0.0327
44 | RRIRMRPPRLPRPRPRPYFFPRP | -0.175
45 | RRIRHRPPRLPRPRPRPGAHPRP | -0.457
46 | RRIRLRPPRLPRPRPRPTASPRP | 0.0857
47 | RRIRRRPPRLPRPRPRPDPCPRP | -0.00607
48 | RRIRWRPPRLPRPRPRPNNSPRP | -0.723
49 | RRIRSRPPRLPRPRPRPQMVPRP | -0.102
50 | RRIRMRPPRLPRPRPRPWLEPRP | -0.00871

Row | Sequence | shrunken log2 fold change
51 | RRIRTRPPRLPRPRPRPNIRPRP | -0.0979
52 | RRIRIRPPRLPRPRPRPMTDPRP | -0.91
53 | RRIRHRPPRLPRPRPRPGTTPRP | -0.221
54 | RRIRRRPPRLPRPRPRPWDQPRP | 0.0792
55 | RRIRRRPPRLPRPRPRPDVTPRP | -0.0312
56 | RRIRLRPPRLPRPRPRPCRKPRP | -0.19
57 | RRIRLRPPRLPRPRPRPMVWPRP | 0.0457
58 | RRIRQRPPRLPRPRPRPMFNPRP | -0.436
59 | RRIRLRPPRLPRPRPRPALEPRP | 0.155
60 | RRIRHRPPRLPRPRPRPQHTPRP | -0.386
61 | RRIRPRPPRLPRPRPRPFVNPRP | -0.196
62 | RRIRYRPPRLPRPRPRPQAMPRP | -0.418
63 | RRIRNRPPRLPRPRPRPQQLPRP | -0.0538
64 | RRIRHRPPRLPRPRPRPLNPPRP | -0.204
65 | RRIRWRPPRLPRPRPRPSCKPRP | -0.183
66 | RRIRYRPPRLPRPRPRPETCPRP | -0.00674
67 | RRIRVRPPRLPRPRPRPSDAPRP | -0.203
68 | RRIRHRPPRLPRPRPRPGKHPRP | -0.362
69 | RRIRLRPPRLPRPRPRPTSFPRP | -0.0182
70 | RRIRNRPPRLPRPRPRPHHSPRP | 0.0657
71 | RRIRKRPPRLPRPRPRPLSMPRP | 0.0129
72 | RRIRFRPPRLPRPRPRPCPGPRP | -0.151
73 | RRIRRRPPRLPRPRPRPVGPPRP | -0.0193
74 | RRIRYRPPRLPRPRPRPHNQPRP | -0.753
75 | RRIRNRPPRLPRPRPRPPELPRP | 0.142

Row | Sequence | shrunken log2 fold change
76 | RRIRVRPPRLPRPRPRPEVFPRP | 0.0748
77 | RRIRPRPPRLPRPRPRPMNIPRP | -0.793
78 | RRIRIRPPRLPRPRPRPNTQPRP | -0.295
79 | RRIRTRPPRLPRPRPRPCSAPRP | -0.413
80 | RRIRQRPPRLPRPRPRPEYQPRP | 0.00438
81 | RRIRFRPPRLPRPRPRPTARPRP | 0.336
82 | RRIRHRPPRLPRPRPRPWWQPRP | 0.00354
83 | RRIRGRPPRLPRPRPRPDWAPRP | 1.22
84 | RRIRLRPPRLPRPRPRPIMFPRP | -0.488
85 | RRIRKRPPRLPRPRPRPSKQPRP | 0.292
86 | RRIRQRPPRLPRPRPRPPCPPRP | 0.085
87 | RRIRGRPPRLPRPRPRPFDSPRP | 0.0127
88 | RRIRFRPPRLPRPRPRPFCNPRP | -0.196
89 | RRIRVRPPRLPRPRPRPPTIPRP | 0.0741
90 | RRIRDRPPRLPRPRPRPPIHPRP | -0.487
91 | RRIRTRPPRLPRPRPRPGFNPRP | -0.234
92 | RRIRYRPPRLPRPRPRPTMYPRP | -0.33
93 | RRIRGRPPRLPRPRPRPPATPRP | 1.79
94 | RRIRCRPPRLPRPRPRPDMLPRP | -0.283
95 | RRIRFRPPRLPRPRPRPGCCPRP | 0.258
96 | RRIRCRPPRLPRPRPRPLRVPRP | 0.0985
97 | RRIRNRPPRLPRPRPRPSCFPRP | -0.398
98 | RRIRHRPPRLPRPRPRPRYQPRP | -1.18
99 | RRIRWRPPRLPRPRPRPIAVPRP | 0.187
100 | RRIRSRPPRLPRPRPRPWVNPRP | -0.0336

Row | Sequence | shrunken log2 fold change
101 | RRIRWRPPRLPRPRPRPFGRPRP | -0.0754
102 | RRIRSRPPRLPRPRPRPYYYPRP | -0.507
103 | RRIRARPPRLPRPRPRPLDSPRP | 0.166
104 | RRIRYRPPRLPRPRPRPRFQPRP | -0.201
105 | RRIRDRPPRLPRPRPRPVHWPRP | 0.31
106 | RRIRPRPPRLPRPRPRPSKAPRP | -0.175
107 | RRIRTRPPRLPRPRPRPHCEPRP | 0.023
108 | RRIRARPPRLPRPRPRPNKVPRP | -0.108
109 | RRIRKRPPRLPRPRPRPSGFPRP | 0.161
110 | RRIRMRPPRLPRPRPRPCYKPRP | -0.145
111 | RRIRSRPPRLPRPRPRPRHRPRP | 0.121
112 | RRIRARPPRLPRPRPRPRHCPRP | -0.0733
113 | RRIRWRPPRLPRPRPRPVIQPRP | -0.2
114 | RRIRCRPPRLPRPRPRPGYEPRP | -0.00917
115 | RRIRCRPPRLPRPRPRPQKNPRP | -0.281
116 | RRIRYRPPRLPRPRPRPDEPPRP | -0.0449
117 | RRIRMRPPRLPRPRPRPRNRPRP | 0.687
118 | RRIRERPPRLPRPRPRPTHCPRP | -0.115
119 | RRIRCRPPRLPRPRPRPDGAPRP | 0.129
120 | RRIRMRPPRLPRPRPRPQHRPRP | 0.0767
121 | RRIRIRPPRLPRPRPRPDVDPRP | -0.297
122 | RRIRKRPPRLPRPRPRPRMFPRP | 0.112
123 | RRIRERPPRLPRPRPRPEMRPRP | 0.151
124 | RRIRARPPRLPRPRPRPCILPRP | -1.06
125 | RRIRKRPPRLPRPRPRPEQFPRP | -0.0303
